# Data from US20230322957A1 (ENGMAB SARL, published 2023).
# T1: human BCMA on the cell surface (human, UniProt Q02223 1-184)
# T1 sequence (looked up): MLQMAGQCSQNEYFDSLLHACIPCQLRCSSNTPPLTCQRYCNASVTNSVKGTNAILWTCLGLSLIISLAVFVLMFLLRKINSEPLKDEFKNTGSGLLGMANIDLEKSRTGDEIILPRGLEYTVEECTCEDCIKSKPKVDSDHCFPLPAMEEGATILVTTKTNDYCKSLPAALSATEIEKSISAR
# B1: 83A10-TCBcv (bispecific antibody, human IgG1, kappa, L234A L235A)
# heavy 1: not shown
# heavy 2: not shown
# light 1: not shown
# light 2: EVQLLESGGGLVQPGGSLRLSCAASGFTFSTYAMNWVRQAPGKGLEWVSRIRSKYNNYATYYADSVKGRFTISRDDSKNTLYLQMNSLRAEDTAVYYCVRHGNFGNSYVSWFAYWGQGTLVTVSSASVAAPSVFIFPPSDEQLKSGTASVVCLLNNFYPREAKVQWKVDNALQSGNSQESVTEQDSKDSTYSLSSTLTLSKADYEKHKVYACEVTHQGLSSPVTKSFNRGEC
# B2: Mab 21 IgG (antibody, V domains shown)
# VH: EVQLLESGGGLVQPGGSLRLSCAASGFTFSDNAMGWVRQAPGKGLEWVSAISGPGSSTYYADSVKGRFTISRDNSKNTLYLQMNSLRAEDTAVYYCAKVLGWFDYWGQGTLVTVSS
# VL: EIVLTQSPGTLSLSPGERATLSCRASQSVSEYYLAWYQQKPGQAPRLLIEHASTRATGIPDRFSGSGSGTDFTLTISRLEPEDFAVYYCQQYGYPPDFTFGQGTKVEIK
# notes: Tested as human IgG1; also called antibody 21
# B3: Mab 27 IgG (antibody, V domains shown)
# VH: EVQLLESGGGLVQPGGSLRLSCAASGFTFSSAPMGWVRQAPGKGLEWVSAISYIGHTYYADSVKGRFTISRDNSKNTLYLQMNSLRAEDTAVYYCAKVLGWFDYWGQGTLVTVSS
# VL: EIVLTQSPGTLSLSPGERATLSCRASQSVSEYYLAWYQQKPGQAPRLLIEHASTRATGIPDRFSGSGSGTDFTLTISRLEPEDFAVYYCQQYGYPPDFTFGQGTKVEIK
# notes: Tested as human IgG1
# B4: Mab 22 IgG (antibody, V domains shown)
# VH: EVQLLESGGGLVQPGGSLRLSCAASGFTFSDNAMGWVRQAPGKGLEWVSAISGPGSSTYYADSVKGRFTISRDNSKNTLYLQMNSLRAEDTAVYYCAKVLGWFDYWGQGTLVTVSS
# VL: EIVLTQSPGTLSLSPGERATLSCRASQSVSSYYLAWYQQKPGQAPRLLISGAGSRATGIPDRFSGSGSGTDFTLTISRLEPEDFAVYYCQQYGYPPDFTFGQGTKVEIK
# notes: Tested as human IgG1; also called antibody 22; clone 22
# B5: Mab 42 IgG (antibody, V domains shown)
# VH: EVQLLESGGGLVQPGGSLRLSCAASGFTFSDNAMGWVRQAPGKGLEWVSAISGPGSSTYYADSVKGRFTISRDNSKNTLYLQMNSLRAEDTAVYYCAKVLGWFDYWGQGTLVTVSS
# VL: EIVLTQSPGTLSLSPGERATLSCRASQSVSDEYLSWYQQKPGQAPRLLIHSASTRATGIPDRFSGSGSGTDFTLAISRLEPEDFAVYYCQQYGYPPDFTFGQGTKVEIK
# notes: Tested as human IgG1; also called antibody 42; clone 42
# B6: Mab 33 IgG (antibody, V domains shown)
# VH: EVQLLESGGGLVQPGGSLRLSCAASGFTFYTNAMGWVRQAPGKGLEWVSAINRFGGSTYYADSVKGRFTISRDNSKNTLYLQMNSLRAEDTAVYYCAKVLGWFDYWGQGTLVTVSS
# VL: EIVLTQSPGTLSLSPGERATLSCRASQSVSEYYLAWYQQKPGQAPRLLIEHASTRATGIPDRFSGSGSGTDFTLTISRLEPEDFAVYYCQQYGYPPDFTFGQGTKVEIK
# notes: Tested as human IgG1
# B7: Mab 39 IgG (antibody, V domains shown)
# VH: EVQLLESGGGLVQPGGSLRLSCAASGFTFTQNAMGWVRQAPGKGLEWVSAISPTGFSTYYADSVKGRFTISRDNSKNTLYLQMNSLRAEDTAVYYCAKVLGWFDYWGQGTLVTVSS
# VL: EIVLTQSPGTLSLSPGERATLSCRASQSVSEYYLAWYQQKPGQAPRLLIEHASTRATGIPDRFSGSGSGTDFTLTISRLEPEDFAVYYCQQYGYPPDFTFGQGTKVEIK
# notes: Tested as human IgG1
# Assays:
# [1] = target: T1, human BCMA on the cell surface; assay: cell-based or functional assay
# [2] = target: T1, human BCMA on the cell surface; assay: cell-based or functional assay; remark: listed apart in the source
# [3] = target: T1, human BCMA on the cell surface; assay: cell-based or functional assay; remark: listed apart in the source
# [4] = target: T1, human BCMA on the cell surface; assay: cell-based or functional assay; remark: listed apart in the source
# [5] = target: T1, human BCMA on the cell surface; assay: cell-based or functional assay; remark: listed apart in the source
# [6] = target: T1, human BCMA on the cell surface; assay: cell-based or functional assay; remark: listed apart in the source
# [7] = target: T1, human BCMA on the cell surface; assay: cell-based or functional assay; remark: listed apart in the source
# [8] = target: recombinant cynomolgus BCMA Fc(kih) (cynomolgus, UniProt A0A2K5UD97 4-51, biotinylated in vivo at the avi-tag at the C-terminus of the Fc knob chain); assay: ratio of the SPR KDs of Table 4, human BCMA as reference
# Chain of recombinant cynomolgus BCMA Fc(kih) (A0A2K5UD97 entry or part of it): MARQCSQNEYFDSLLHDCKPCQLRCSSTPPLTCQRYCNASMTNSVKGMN
# Method: Assessment of binding of anti-BCMA antibodies to recombinant BCMA by surface plasmon resonance (SPR) as follow. All SPR experiments were performed on a Biacore T200 at 25° C. with HBS-EP as running buffer (0.01M HEPES pH 7.4, 0.15M NaCl, 3 mM EDTA, 0.005% Surfactant P20, Biacore, Freiburg/Germany). The avidity of the interaction between anti-BCMA antibodies and recombinant BCMA Fc(kih) (human and cynomolgus) was determined. Biotinylated recombinant human and cynomolgus BCMA Fc(kih) were directly coupled on a SA chip following instructions (Biacore, Freiburg/Germany). The immobilization level ranged from 200 to 700 RU. […] The dissociation was monitored for 180 seconds. Bulk refractive index differences were corrected for by subtracting the response obtained on the reference flow cell. Here, the anti-BCMA antibodies were flown over an empty surface previously activated and deactivated as described in the standard amine coupling kit. Apparent kinetic constants were derived using the Biacore T200 Evaluation Software (vAA, Biacore AB, Uppsala/Sweden), to fit rate equations for 1:1 Langmuir binding by numerical integration, despite the bivalency of the interaction for comparison purposes. The affinity of the interaction between anti-BCMA antibodies and recombinant human BCMA Fc(kih) was also determined. Anti-human Fab antibody (GE Healthcare) was directly coupled on a CM5 chip at pH 5.0 using the standard amine coupling kit (Biacore, Freiburg/Germany). The immobilization level was about 6500 RU. […] The dissociation was monitored for 120 seconds. Bulk refractive index differences were corrected for by subtracting the response obtained on reference flow cell. […] Kinetic constants were derived using the Biacore T100 Evaluation Software (vAA, Biacore AB, Uppsala/Sweden), to fit rate equations for 1:1 Langmuir binding by numerical integration (Table 4).
binder,measurement,setting,value
B1,"Granzyme B secretion EC50, PBMC + RPMI-8226 cells (CBA)",[1],0.34 nM
same,"IL-10 secretion EC50, PBMC + RPMI-8226 cells (CBA)",[1],0.3 nM
same,"TNF-α secretion EC50, PBMC + RPMI-8226 cells (CBA)",[1],0.52 nM
same,"EC50 redirected T-cell killing of H929 cells (LDH release), Donor 1",[2],0.0039 nM
same,"EC50 redirected T-cell killing of H929 cells (LDH release), Donor 3",[2],0.0085 nM
same,"EC50 redirected T-cell killing of H929 cells (LDH release), Donor 4",[2],0.005 nM
same,"EC50 redirected T-cell killing of H929 cells (LDH release), Donor 5",[2],0.0043 nM
same,"EC50 redirected T-cell killing of H929 cells (LDH release), Donor 6",[2],0.0015 nM
same,"EC50 redirected T-cell killing of L363 cells (LDH release), Donor 1",[3],0.0168 nM
same,"EC50 redirected T-cell killing of L363 cells (LDH release), Donor 2",[3],0.0478 nM
same,"EC50 redirected T-cell killing of L363 cells (LDH release), Donor 3",[3],0.0284 nM
same,"EC50 redirected T-cell killing of L363 cells (LDH release), Donor 4",[3],0.0126 nM
same,"EC50 redirected T-cell killing of L363 cells (LDH release), Donor 5",[3],0.039 nM
same,"EC50 redirected T-cell killing of RPMI-8226 cells (LDH release), Donor 2",[4],0.621 nM
same,"EC50 redirected T-cell killing of RPMI-8226 cells (LDH release), Donor 3",[4],0.229 nM
same,"EC50 redirected T-cell killing of RPMI-8226 cells (LDH release), Donor 4",[4],0.035 nM
same,"EC50 redirected T-cell killing of RPMI-8226 cells (LDH release), Donor 5",[4],0.0649 nM
same,"Annexin-V positive JJN-3 cells (%) at 0.1 pM, Experiment 2",[5],13.1%
same,"Annexin-V positive JJN-3 cells (%) at 1 pM, Experiment 1",[5],11.4%
same,"Annexin-V positive JJN-3 cells (%) at 1 pM, Experiment 2",[5],14.3%
same,"Annexin-V positive JJN-3 cells (%) at 10 pM, Experiment 1",[5],11.1%
same,"Annexin-V positive JJN-3 cells (%) at 10 pM, Experiment 2",[5],15.9%
same,"Annexin-V positive JJN-3 cells (%) at 100 pM, Experiment 1",[5],9.12%
same,"Annexin-V positive JJN-3 cells (%) at 100 pM, Experiment 2",[5],16.5%
same,"Annexin-V positive JJN-3 cells (%) at 1000 pM, Experiment 1",[5],10.2%
same,"Annexin-V positive JJN-3 cells (%) at 1000 pM, Experiment 2",[5],17.5%
same,"Annexin-V positive JJN-3 cells (%) at 10000 pM, Experiment 1",[5],16.8%
same,"Annexin-V positive JJN-3 cells (%) at 10000 pM, Experiment 2",[5],22.9%
same,"Lysis of JJN-3 cells (%) at 0.1 pM, Experiment 2",[6],22.3%
same,"Lysis of JJN-3 cells (%) at 1 pM, Experiment 1",[6],24.4%
same,"Lysis of JJN-3 cells (%) at 1 pM, Experiment 2",[6],-1.88%
same,"Lysis of JJN-3 cells (%) at 10 pM, Experiment 1",[6],41.9%
same,"Lysis of JJN-3 cells (%) at 10 pM, Experiment 2",[6],39.6%
same,"Lysis of JJN-3 cells (%) at 100 pM, Experiment 1",[6],18.4%
same,"Lysis of JJN-3 cells (%) at 100 pM, Experiment 2",[6],20.1%
same,"Lysis of JJN-3 cells (%) at 1000 pM, Experiment 1",[6],26.7%
same,"Lysis of JJN-3 cells (%) at 1000 pM, Experiment 2",[6],25.3%
same,"Lysis of JJN-3 cells (%) at 10000 pM, Experiment 1",[6],70.3%
same,"Lysis of JJN-3 cells (%) at 10000 pM, Experiment 2",[6],51.2%
same,Annexin-V positive patient bone marrow myeloma plasma cells (%) at 10 pM,[7],16.8%
same,Annexin-V positive patient bone marrow myeloma plasma cells (%) at 100 pM,[7],15.7%
same,Annexin-V positive patient bone marrow myeloma plasma cells (%) at 1000 pM,[7],23.1%
same,Annexin-V positive patient bone marrow myeloma plasma cells (%) at 10000 pM,[7],30.9%
same,Annexin-V positive patient bone marrow myeloma plasma cells (%) at 30000 pM,[7],29.3%
B2,Affinity cyno/hu gap (KD cynomolgus BCMA / KD human BCMA),[8],9.3 fold
B3,Affinity cyno/hu gap (KD cynomolgus BCMA / KD human BCMA),[8],12.7 fold
B4,Affinity cyno/hu gap (KD cynomolgus BCMA / KD human BCMA),[8],15.4 fold
B5,Affinity cyno/hu gap (KD cynomolgus BCMA / KD human BCMA),[8],1.7 fold
B6,Affinity cyno/hu gap (KD cynomolgus BCMA / KD human BCMA),[8],4.2 fold
B7,Affinity cyno/hu gap (KD cynomolgus BCMA / KD human BCMA),[8],14 fold
